From paper PMC8542387 (2021)

B1: Mip1-myc (wild type) [S. pombe] / FLAG-tagged Tor2 kinase [S. pombe] (parent complex)
chain 1: MNDRISEVSGSSRARRSVLSYGTTETGSDRYTENSNIATENGVDTASSMIDGIQSGFPQPRHGFEEEYNNAEYINMLEQVFYMYYTDKRHRGVISKKNAEPTETIHDWRMRERLKTVSAALLVCLNIGVDPPDVIKPNPAAKYECWIDPFSLPASKALEAIGKNLQQQYETLSMRTRYRHYLDPAIEEVKKLCIGQRRNAKEERILFHYNGHGVPMPTASGEIWVFNKNYTQYIPVSLYDLQSWLGAPCIYVYDCSAAGNIIVNFNRFAEQRDKEALRIAKQNPNVLAMPSHTSCIQLAACGPKETLPMNPDLPADLFTSCLTSPIEISVRWYVLQNPFPNKLNLNMLLKIPGRLQDRRTPLGELNWIFTAITDTIAWNVFPKHLFRRLFRQDLMVAALFRNFLLAERIMLVHSCHPQSSPELPPTHDHPMWNSWDLAIDNCLSQLPDMLDAESKGIAYEYKHSTFFSEQLTAFEVWLSQGLISRKPPDQLPLVLQVLLSQVHRLRALILLSKFLDLGVWAVDLALSIGIFPYVLKLLQSPAIELKPVLVFIWARILAVDDSCQADLLKDNGYGYFVQILNPNSSIFPSSNISEHRAMCAFILSVFCRGFPQGQLACLNPQVLSHCLSHLNSPDSLLRQWACLCISQLWENYSEAKWSGTRDNAHVKLAEIIVDSVPEVRASVLTAFTTFLGFPEKTEEVVAVETYIAIAALAALSDASPLVRHELVIFLSHFVVNYKKQLMVVAYESSLADILEKKNHNSISASTIYETVWQAVLVLAADPSIEISLAAEAIINYVYQSMLNSELRESFLAFLLQHLPALHKASLSKDTDTNSVTSDPKPHPFVPSVSENKILNRSFSLTRSLKGLALSLAGSDRASELLSLNGENKPAESNLNHLTSAKVPGPPAFNELEYQSELDMPLTSYLFDWSRKYFTEPQMRPNEDDEPGSICYNQRLWRRNRNEKLIYRTRPLAEYSTNGRWNQQLMTFNNTIAPRKLMFHQFEDQLITLGDKDIIQVWDWRRNRCLNSFKTSASATTNVTDMQLLNEDDVALLMTGSSDGTIKLYRDYENEKVELVTSWNSLSDLVFGDRNASLLMSWQQNCGHLLVAGDVRVIRIWDASKEICYANLPVRSSNSITSLTSDLVGCNIIVAGFSDGVLRVYDKRLPARDSLTDVWKEHSSEIVNVEMQSSGMRELISASSDGEVKLWDIRMNHSLQTFSTDNSGLTSLTVHSHAPVYATGSSNQSIKIWDTLGQNINTFRENPRFLNQPKPSSLMCLKFHPHHLLLACGDNTDSRVNLYSCTKNEIHTDSPNEF
chain 2: MKEFPGLKSRNEEIRNKAANDLYEYVIAYSRELSGEALVQFNNDVNKYVYTLIHSTDPLDRLAGVTAINRLIDYEGEDTTRITRFANYLRIILPGTDQKATVLAAKALGRLAVPGGALTSEFVNFEVKRALEWLQGERNENRRYAAVLILKELAKNTSTLIYAHIDSIFELLWHGLRDPKVTIRIASADALSEFLKIVRQRDSSIRLQWYTSILNEAQRGVAQGSSDYIHGSLLVYRQLFLKAGMFMHERYREVSDIILQFRDHKDLLIRKTVTELIATLAAYNPDEFVSNYLHVCMLHLLNLLKKENVKMLAFATIGKVAVAITNSIIPYLDPICDSIKESLKIHIRNKSASDAAIFQCISLLSIALGQAFSNYAYDLFDLIFASGLSEASYRALSDLAHNIPPLLPVIQERLLDMLSKILSGRPFIPPGCPPQYVARSLKSSKSASLKTGFFPNDVYILALKVLGNFDFSGYILNEFVKDCVVVYLENNDPEVRKTASITCSQLFARDPILSQTSDHAIQVVAEVLEKLLTVGICDTVPDIRLTVLNSLDSRFNKHLAQADKIRLLFIAINDENFAVRESALRIIGRLNVYNPAYVMPYLRKIMLKTLTILDYSTIIRTKEENAKLLCLLIAAAPRLIESHVEPILQILLPKAKDSSSIVAASIVNSLGEICQISGEVIVPFIKDLMPLIIEALQDQSSPIRRAAALKALGNLSSSTGYVIDPYIEFPSLLDILIGITKTEQDITIRRETIKLIGTLGALDPNRHRVLEKGTEKVVPEQKNIPPDISLLMSGIGPSSDEYYPTVVITALMSILKDPSLTIHHTAVIQAVMYIFKTMGLRCAPFLSQIIPEFIAVMRTCPTNILEFYFQQLSILVLIVRQHIRSFLPDLFKLIKDFWNPHSNLQFTILSLIESLARAMQGEFKPYLPSLLVMMLQIFDSDVSVDSVSTKKVLHAFIVFGDTLADYFHMLLDPILRLYERNDVSIGIKESIMITIGRLSMVINLSEYASRIIHPVMRMLSCNNASLIRVSMDTVCALIYQLNVDFAIFIPMIDKCLKMNGVTHETYSILVEQFLQEQPLPIKLNPYEKYDKPKLDVVASAADITSKKLPVNQEILRNAWEASQRSTKDDWQEWIRRLGVALLRESPSHALRACAALAAAYQPLARDLFNASFVSCWSELYDHFQEELVKSIEIALTSPHISPEIIQILLNLAEFMEHDDKPLPIDIRTLGAYAAKCHAFAKALHYKELEFIEEELVTKPSVDTIEALISINNQLQQPDAAIGILKHAQQHDKMNLKETWYEKLQRWEDALSAYEKREAAGAGNFEITMGKLRCLHALGEWDRLSQLAQENWIHAGHDARRYIAPLSVAAAWGLGQWEQMDEYISVMKSESPDKAFFNAIVALHRSQFEEAASYITRARDLLDTELTALVGESYNRAYSVAVRVQMLSELEEIITYKKAEDKPEVREMIKKTWVRRLKGCQRNVDVWQRMLRIRSLVISPRDNMEMWIKFANLCRKSGRISLAKKSLNLLLEDDENLDNSLVLKKTHPSIVYANLKFLWAVDDKRKALNSMQEFTSQLISDINVDPALFVQSTSVNTQKSQEEIQYYFHLLARCYHKQGQWQQEIENNWSEGSFDGVLQSYMYATQFDSKWYKAWHSWALANFEAVKFLEQSEEQIPSAAYEQYIIPAVKGFFKSIALSKGNLQDTLRLLNLWFKFGNNSNVINTLNVGISTVNIDIWLDVIPQLIARIHASSLSVRKSVHQLLSDVGRAHPQALVYPLTVAAKSQSSARQNAALAIMDSLKTHSPRLVEQARLVSHELIRAAILWHEQWHEGLEEASRLYFGDHNIEGMFAVLRPLHEMLERGPETLREISFQQAFGRDLVEARDCCIRFEQTGDISDLNQAWDLYYQVFKKIRKQLPQLTTLDLQYVSPKLLHVHDLELAVPGTYVSGKPVIRIVKFYPTFNVITSKQRPRRLSIKGSDGKDYQYVLKGHEDIRQDERVMQLFGLCNNLLLADPETFKRLLSIQRYPVIPLSPDSGLLGWVLDSDTLHVLIRDYRESRKILLNIEHRLIIQMAPDYDRLTLLQKVEVFEYALLSTTGQDLYRVLWLKSRSSEAWLNRRTNYSRTLAVMSMVGYILGLGDRHPSNLMLDRYTGNIIHIDFGDCFEVAMHREKFPEKIPFRLTRMLVNAMEVSGIEGTFRITCEHVMRVLRTNKESVMAVLEAFVYDPLINWRLAPAYSPSIDEKQSNEPNTLLGETIDGLHRKRLNEEGITLEERQKPEILNQRAITVLNRVSNKLTGRDFKPQQQLDVPSQVEKLILQATSIENLCLCYIGWCSFW

Variants of: B1
Assay: co-immunoprecipitation (anti-FLAG affinity beads) with quantified immunoblot; n=3 independent experiments; parent: 1; read off a plot
In the case of chain 1 R504A, the ratio to parent is reported as roughly 0.53.
chain 1 R358A gave a ratio to parent of roughly 0.42.
chain 1 Y533A was tested, and the ratio to parent was roughly 0.9.
